For data set [1], the target named is hSlo1EM (human Slo1 channel, tags released) (human). The data set can be described thus: SEC. On the technique in general: In gel filtration, larger molecules generally elute earlier.
The target of data set [2] is hSlo1EM-eGFP-twin-strep (human Slo1 channel, tags on) (human).
The data set “SEC” deals with the molecule itself. The data set can be described thus: SEC.
Data set [3] addresses hSlo1EM-eGFP-twin-strep (human Slo1 channel, tags on) (human). This is another data set of the same source.
Data set [4] has the same target. The source holds these as a separate data set.
Data set [5] has the same target. The source holds these as a separate data set.
The data set “cryo-EM structure” concerns the molecule itself. As to the kind of experiment: cryo-EM structure.
In data set [6] the target is hSlo1EM (human Slo1 channel, tags released) (human). The data set can be described thus: cryo-EM structure.

Numbering of substitutions follows the chain as printed. Names may count otherwise. A value given as a limit tells only on which side of the number the result lay.

Sequence of hSlo1EM-eGFP-twin-strep (human Slo1 channel, tags on) (human) (Q12791 whole entry): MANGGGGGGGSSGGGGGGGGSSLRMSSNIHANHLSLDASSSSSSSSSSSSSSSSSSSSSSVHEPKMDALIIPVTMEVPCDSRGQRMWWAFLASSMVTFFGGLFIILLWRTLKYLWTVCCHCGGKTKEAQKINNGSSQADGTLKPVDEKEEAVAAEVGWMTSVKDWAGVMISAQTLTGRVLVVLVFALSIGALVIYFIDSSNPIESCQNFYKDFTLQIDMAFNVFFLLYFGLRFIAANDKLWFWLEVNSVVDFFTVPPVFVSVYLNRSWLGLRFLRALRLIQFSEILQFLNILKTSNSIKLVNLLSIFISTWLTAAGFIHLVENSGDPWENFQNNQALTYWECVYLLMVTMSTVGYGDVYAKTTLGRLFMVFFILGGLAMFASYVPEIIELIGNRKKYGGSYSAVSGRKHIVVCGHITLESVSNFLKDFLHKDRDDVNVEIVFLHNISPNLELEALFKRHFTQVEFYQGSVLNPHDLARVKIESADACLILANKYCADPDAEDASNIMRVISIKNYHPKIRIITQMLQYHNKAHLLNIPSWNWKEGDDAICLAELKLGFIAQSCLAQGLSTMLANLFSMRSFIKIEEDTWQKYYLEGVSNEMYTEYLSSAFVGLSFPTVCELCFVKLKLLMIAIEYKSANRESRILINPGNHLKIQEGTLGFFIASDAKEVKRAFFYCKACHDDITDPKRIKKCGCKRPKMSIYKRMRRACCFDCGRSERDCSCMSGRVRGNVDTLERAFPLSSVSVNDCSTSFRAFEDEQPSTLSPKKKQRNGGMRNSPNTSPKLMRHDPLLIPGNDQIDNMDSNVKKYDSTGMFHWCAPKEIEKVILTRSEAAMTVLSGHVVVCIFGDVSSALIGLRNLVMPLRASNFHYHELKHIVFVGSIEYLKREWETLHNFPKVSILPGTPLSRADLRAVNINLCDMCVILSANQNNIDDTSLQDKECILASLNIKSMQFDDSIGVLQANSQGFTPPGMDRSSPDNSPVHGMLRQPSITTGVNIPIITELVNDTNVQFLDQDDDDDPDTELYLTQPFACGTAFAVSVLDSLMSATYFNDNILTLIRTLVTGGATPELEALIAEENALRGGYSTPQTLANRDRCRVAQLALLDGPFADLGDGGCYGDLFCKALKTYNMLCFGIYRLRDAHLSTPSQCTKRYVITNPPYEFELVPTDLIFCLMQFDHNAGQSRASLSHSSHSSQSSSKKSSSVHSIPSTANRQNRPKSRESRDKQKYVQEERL

The stoichiometry N is a count of units in the complex or per binding partner. For the molecule “hSlo1EM (human Slo1 channel, tags released) (natural protein)”, the stoichiometry N in data set [1] was 4 subunits. As to “hSlo1EM-eGFP-twin-strep (human Slo1 channel, tags on) (natural protein)”, the stoichiometry N in data set [2] worked out at 4 subunits.

B1: LRRD of γ1 (residues 1-261)-mCherry-FLAG (domain or fragment, human, UniProt Q2I0M4 27-261, looked up)
chain: QVSATASPSGSLGAPDCPEVCTCVPGGLASCSALSLPAVPPGLSLRLRALLLDHNRVRALPPGAFAGAGALQRLDLRENGLHSVHVRAFWGLGALQLLDLSANQLEALAPGTFAPLRALRNLSLAGNRLARLEPAALGALPLLRSLSLQDNELAALAPGLLGRLPALDALHLRGNPWGCGCALRPLCAWLRRHPLPASEAETVLCVWPGRLTLSPLTAFSDAAFSHCAQPLALRD
B1: the binding result in the data set “SEC” is given as “binds”.

B2: β4 subunit-mCherry-FLAG (natural protein)
chain: MAKLRVAYEYTEAEDKSIRLGLFLIISGVVSLFIFGFCWLSPALQDLQATEANCTVLSVQQIGEVFECTFTCGADCRGTSQYPCVQVYVNNSESNSRALLHSDEHQLLTNPKCSYIPPCKRENQKNLESVMNWQQYWKDEIGSQPFTCYFNQHQRPDDVLLHRTHDEIVLLHCFLWPLVTFVVGVLIVVLTICAKSLAVKAEAMKKRKFS
As for B2, in data set [3], the stoichiometry N (auxiliary subunits per Slo1 tetramer) turned out to be 4. Besides, in data set [4], the percent of total Slo1 in complex is over 90%.

B3: LRRC38 (γ4)-mCherry-FLAG (natural protein)
chain: CPAGCACTDPHTVDCRDRGLPSVPDPFPLDVRKLLVAGNRIQRIPEDFFIFYGDLVYLDFRNNSLRSLEEGTFSGSAKLVFLDLSYNNLTQLGAGAFRSAGRLVKLSLANNNLVGVHEDAFETLESLQVLELNDNNLRSLSVAALAALPALRSLRLDGNPWLCDCDFAHLFSWIQENASKLPKGLDEIQCSLPMESRRISLRELSEASFSECRFSLSLTDLCIIIFSGVAVSIAAIISSFFLATVVQCLQRCAPNKDAEDEDEDKDD
On to B3, for which the percent of total Slo1 in complex in data set [4] is under 10%.

B4: LRRC55 (γ3)-mCherry-FLAG (natural protein)
chain: GTSCPVLCTCRNQVVDCSSQRLFSVPPDLPMDTRNLSLAHNRITAVPPGYLTCYMELQVLDLHNNSLMELPRGLFLHAKRLAHLDLSYNNFSHVPADMFQEAHGLVHIDLSHNPWLRRVHPQAFQGLMQLRDLDLSYGGLAFLSLEALEGLPGLVTLQIGGNPWVCGCTMEPLLKWLRNRIQRCTADSQLAECRGPPEVEGAPLFSLTEESFKACHLTLTLDDYLFIAFVGFVVSIASVATNFLLGITANCCHRWSKASEEEEI
As for B4, the percent of total Slo1 in complex in data set [4] was under 10%.

B5: β2 subunit-mCherry-FLAG (natural protein)
chain: MFIWTSGRTSSSYRHDEKRNIYQKIRDHDLLDKRKTVTALKAGEDRAILLGLAMMVCSIMMYFLLGITLLRSYMQSVWTEESQCTLLNASITETFNCSFSCGPDCWKLSQYPCLQVYVNLTSSGEKLLLYHTEETIKINQKCSYIPKCGKNFEESMSLVNVVMENFRKYQHFSCYSDPEGNQKSVILTKLYSSNVLFHSLFWPTCMMAGGVAIVAMVKLTQYLSLLCERIQRINR
The molecule B5 came in with a stoichiometry N (auxiliary subunits per Slo1 tetramer) in data set [3] of 4. The molecule further displayed a percent of total Slo1 in complex in data set [4] of over 90%.

B6: human LRRC26 (γ1)-mCherry-FLAG (natural protein, UniProt Q2I0M4 27-334, looked up)
chain: QVSATASPSGSLGAPDCPEVCTCVPGGLASCSALSLPAVPPGLSLRLRALLLDHNRVRALPPGAFAGAGALQRLDLRENGLHSVHVRAFWGLGALQLLDLSANQLEALAPGTFAPLRALRNLSLAGNRLARLEPAALGALPLLRSLSLQDNELAALAPGLLGRLPALDALHLRGNPWGCGCALRPLCAWLRRHPLPASEAETVLCVWPGRLTLSPLTAFSDAAFSHCAQPLALRDLAVVYTLGPASFLVSLASCLALGSGLTACRARRRRLRTAALRPPRPPDPNPDPDPHGCASPADPGSPAAAAQA
B6: the binding result in “SEC” was “binds”. Also, in data set [3], the stoichiometry N (auxiliary subunits per Slo1 tetramer) was 4. For the same molecule, the percent of total Slo1 in complex in data set [4] was 50%. The same molecule had a stoichiometry N (γ1 subunits per Slo1 tetramer) in data set [5] of 3.5.

B7: human LRRC26 (γ1) subunit, tags released (natural protein, UniProt Q2I0M4 27-334, looked up)
chain: B6 chain
modifications: density at N147 likely corresponding to glycosylation
In the case of B7, in the data set “cryo-EM structure”, the binding result is recorded as “binds”. In addition, the stoichiometry N (γ1 subunits per Slo1 tetramer) in data set [6] amounted to 4.

B8: γ1 P270F-mCherry-FLAG (natural protein)
chain: B6 chain with P244F
In data set [3], B8 yielded a stoichiometry N (γ subunits per Slo1 tetramer) of 2.4.

For the origin of these results see article doi:10.1101/2023.12.20.572542 (bioRxiv, 2023).
